Results as given in patent publication US20140235820A1, “METHODS AND COMPOSITIONS FOR MODULATING THE Wnt PATHWAY” (Genentech, Inc., priority 2010, published 2014).

Biological target: T1, human LRP6 construct E1E4 (amino acids A20-Q1253) (human, UniProt O75581 20-1253, biotinylated for biolayer interferometry)
T1 construct: range 20-1253; Expressed in Tni insect cells; tags not specified for this construct; also called LRP6 E1E4
T1 sequence (looked up): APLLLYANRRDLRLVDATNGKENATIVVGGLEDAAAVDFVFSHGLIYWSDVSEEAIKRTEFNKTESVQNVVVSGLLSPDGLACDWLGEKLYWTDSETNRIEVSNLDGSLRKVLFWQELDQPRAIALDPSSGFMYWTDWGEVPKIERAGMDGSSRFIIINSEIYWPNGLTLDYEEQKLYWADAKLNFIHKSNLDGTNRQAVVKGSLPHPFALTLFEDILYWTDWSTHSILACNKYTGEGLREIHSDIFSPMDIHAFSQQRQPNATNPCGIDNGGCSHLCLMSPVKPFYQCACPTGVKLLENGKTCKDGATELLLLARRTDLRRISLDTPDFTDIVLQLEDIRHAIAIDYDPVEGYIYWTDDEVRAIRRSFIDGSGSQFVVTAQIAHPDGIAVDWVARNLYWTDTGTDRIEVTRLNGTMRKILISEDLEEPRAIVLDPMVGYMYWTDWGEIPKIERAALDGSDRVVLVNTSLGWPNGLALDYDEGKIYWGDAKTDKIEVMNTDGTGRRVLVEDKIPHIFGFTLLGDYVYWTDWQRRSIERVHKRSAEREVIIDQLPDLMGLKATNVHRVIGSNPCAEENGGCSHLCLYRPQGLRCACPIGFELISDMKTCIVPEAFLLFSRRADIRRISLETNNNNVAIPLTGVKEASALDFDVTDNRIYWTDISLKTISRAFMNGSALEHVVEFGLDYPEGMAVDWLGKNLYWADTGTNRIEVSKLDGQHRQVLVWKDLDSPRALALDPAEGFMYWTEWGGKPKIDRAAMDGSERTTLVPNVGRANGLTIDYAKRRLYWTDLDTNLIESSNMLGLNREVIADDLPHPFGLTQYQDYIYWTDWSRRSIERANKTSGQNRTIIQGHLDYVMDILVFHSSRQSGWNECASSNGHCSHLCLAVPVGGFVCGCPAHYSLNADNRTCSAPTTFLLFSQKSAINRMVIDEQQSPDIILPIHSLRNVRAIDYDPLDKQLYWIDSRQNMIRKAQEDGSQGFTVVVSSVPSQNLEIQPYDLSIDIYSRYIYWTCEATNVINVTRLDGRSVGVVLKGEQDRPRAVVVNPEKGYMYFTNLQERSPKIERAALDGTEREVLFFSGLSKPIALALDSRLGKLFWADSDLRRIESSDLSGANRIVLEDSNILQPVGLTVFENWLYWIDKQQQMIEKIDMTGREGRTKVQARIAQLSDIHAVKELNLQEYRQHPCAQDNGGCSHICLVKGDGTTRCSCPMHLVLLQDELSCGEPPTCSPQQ
Test: BLI (FIG. 9B)
Description: Binding kinetics were measured by biolayer interferometry using an Octet Red instrument (ForteBio) as previously described (11). Streptavidin (SA) biosensors were loaded with biotinylated hLRP6 in 50 mMTris, pH 8, 300 mM NaCl, 5% (v/v) glycerol, and 0.05% (w/v) Triton X-100. The loaded biosensors were washed in the same buffer before carrying out association and dissociation measurements for the indicated times. The Kd of each interaction was determined using steady state-analysis through the Octet Red software v6.3. Each reported value represents an average of three or more experiments at different concentrations, with a fitted experimental curve for which the square of the correlation coefficient (R²) is above 0.96.

B1: Dkk1 K211E (ligand, human, UniProt O94907 32-266, looked up)
chain: TLNSVLNSNAIKNLPPPLGGAAGHPGSAVSAAPGILYPGGNKYQTIDNYQPYPCAEDEECGTDEYCASPTRGGDAGVQICLACRKRRKRCMRHAMCCPGNYCKNGICVSSDQNHFRGEIEETITESFGNDHSTLDGYSRRTTLSSKMYHTKGQEGSVCLRSSDCASGLCCARHFWSKICEPVLKEGQVCTKHRRKGSHGLEIFQRCYCGEGLSCRIQKDHHQASNSSRLHTCQRH
notes: also called Dkk1 Lys211Glu
B1: binds.
